From patent US20260167712A1, “INHIBITORY ANTIBODIES AGAINST GLUT1” (ICOSAGEN CELL FACTORY OÜ, priority 2022, published 2026)
Entries after “also recorded” stand apart in the source; their conditions may differ.

B1: 6F12 #33 (antibody, V domains shown)
VH: AVTLDESGGGLQTPGGALSLVCKASGFTFSDHAIFWVRQAPDKGLEFVAAISSGTGSWTAYATVVKGRATISRDNGQSTVRLQLNNLRAADTATYYCAKGAGSACCYAGSIDAWGHGTEVIVSS
VL: ALTQPSSVSANPGETVKITCSGGSSSSYYGWYQQKSPGSAPVTLIYYNDKRPSDIPSRFSGSKSGSTATLTITGVQVEDEAVYYCGTGDGSFAIFGAGTTLTVL
B2: 2E5 #22 (antibody, V domains shown)
VH: AVTLDESGGGLQTPGGALSLVCKASGFTFSTKGMGWVRQTPGKGLEWVAGISSMRRYTYYAPAVKGRATISRDNGQSTVRLQLSSLRAEDSGTYYCARDATYCSWTTSTCGWSGGTIDAWGHGTEVIVSS
VL: ALTQPSSVSANLGGTVKITCSGGSGNYGWYQQKSPGSVPVTVIYSNDKRPSDIPSRFSGSGSGSTATLTITGVQVEDEAVYFCGSRDSSYVGLFGAGTTLTVL

How the values were obtained:
SLC2A2 pseudotyped VLPs [1] = molecular target: T1, SLC2A2 pseudotyped VLPs (Homo sapiens, UniProt P11168); test: ELISA-based VLP binding assay, SLC2A2; conditions: compared to MOCK VLPs, FIG. 3
T1 sequence (P11168 1-524): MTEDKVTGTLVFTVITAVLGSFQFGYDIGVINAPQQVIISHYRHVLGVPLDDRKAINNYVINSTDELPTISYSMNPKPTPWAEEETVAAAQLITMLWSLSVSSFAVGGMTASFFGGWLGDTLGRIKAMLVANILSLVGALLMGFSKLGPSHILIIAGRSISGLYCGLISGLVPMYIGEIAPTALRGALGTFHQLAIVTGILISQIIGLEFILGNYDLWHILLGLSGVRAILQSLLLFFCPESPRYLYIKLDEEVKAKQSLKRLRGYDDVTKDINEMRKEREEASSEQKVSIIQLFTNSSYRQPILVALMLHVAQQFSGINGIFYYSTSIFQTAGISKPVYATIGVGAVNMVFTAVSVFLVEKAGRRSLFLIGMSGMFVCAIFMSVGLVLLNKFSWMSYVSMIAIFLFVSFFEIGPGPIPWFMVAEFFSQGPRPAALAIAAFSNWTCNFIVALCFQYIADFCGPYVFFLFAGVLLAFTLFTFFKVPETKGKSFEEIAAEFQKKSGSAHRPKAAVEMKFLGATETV
Experimental: An ELISA-based VLP binding assay was carried out to compare the EC50 values of antibody clones (FIG. 1). Similarly, ELISA based VLP binding assay was performed to compare the binding of the antibodies to different glucose transporters (FIG. 3). MaxiSorp™ high-capacity binding ELISA plate (Thermo Fisher Scientific, US) were coated with 5 μg/mL SLC2A1, SLC2A2, SLC2A3, SLC2A4 pseudotyped VLPs or MOCK VLPs in PBS overnight. The plate was washed and blocked for 1 h with 0.05% Tween 20, 2% BSA in PBS. Serial dilutions of antibodies were incubated on a washed plate for 1 hour, followed by a 1-hour incubation with goat anti-human IgG horse radish peroxidase (HRP) conjugated (Invitrogen) antibody. TMB (3,3′,5,5′-Tetramethylbenzidine) Solution VII (Biopanda Diagnostics) was used as a substrate for HRP and 0.5 M H2SO4 was used as stop solution. After every step, the wells were washed with 0.05% Tween 20, 0.1% Proclin 300 PBS solution. Absorption at 450 nm was measured with Thermo Scientific™ Multiskan™ FC Microplate Photometer. Exemplary wise used antibodies 1G2 #9, 2A2 #12, 2E5 #22, 5G5 #30, 6F12 #33, 7C3 #39 all bound SLC2A1 VLPs with low nanomolar EC50 values (FIG. 1).

SLC2A4 pseudotyped VLPs = molecular target: T2, SLC2A4 pseudotyped VLPs (UniProt P14672 1-509); test: ELISA on VLPs coated at 5 ug/mL, compared with MOCK VLPs
T2 construct: also called SLC2A4 VLPs; GLUT4
T2 sequence: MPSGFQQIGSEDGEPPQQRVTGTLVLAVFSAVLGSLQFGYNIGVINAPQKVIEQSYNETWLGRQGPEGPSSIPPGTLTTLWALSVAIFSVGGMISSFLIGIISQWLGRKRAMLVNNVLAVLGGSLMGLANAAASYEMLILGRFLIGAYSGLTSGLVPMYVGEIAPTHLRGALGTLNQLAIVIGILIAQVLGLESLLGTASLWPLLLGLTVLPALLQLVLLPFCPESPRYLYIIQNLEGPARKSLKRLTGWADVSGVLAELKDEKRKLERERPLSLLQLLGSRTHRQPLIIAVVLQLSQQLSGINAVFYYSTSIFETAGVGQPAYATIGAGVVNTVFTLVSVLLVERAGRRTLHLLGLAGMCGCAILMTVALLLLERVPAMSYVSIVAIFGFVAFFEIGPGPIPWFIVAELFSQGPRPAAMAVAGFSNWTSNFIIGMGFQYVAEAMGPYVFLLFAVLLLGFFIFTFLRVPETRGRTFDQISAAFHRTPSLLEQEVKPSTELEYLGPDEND

SLC2A2 pseudotyped VLPs [2] = molecular target: T3, SLC2A2 pseudotyped VLPs (UniProt P11168 1-524); test: as above
T3 construct: also called SLC2A2 VLPs; GLUT2
T3 sequence: T1 sequence (P11168 1-524)

SLC2A3 pseudotyped VLPs = molecular target: T4, SLC2A3 pseudotyped VLPs (UniProt P11169 1-496); test: as above
T4 construct: also called SLC2A3 VLPs; GLUT3
T4 sequence: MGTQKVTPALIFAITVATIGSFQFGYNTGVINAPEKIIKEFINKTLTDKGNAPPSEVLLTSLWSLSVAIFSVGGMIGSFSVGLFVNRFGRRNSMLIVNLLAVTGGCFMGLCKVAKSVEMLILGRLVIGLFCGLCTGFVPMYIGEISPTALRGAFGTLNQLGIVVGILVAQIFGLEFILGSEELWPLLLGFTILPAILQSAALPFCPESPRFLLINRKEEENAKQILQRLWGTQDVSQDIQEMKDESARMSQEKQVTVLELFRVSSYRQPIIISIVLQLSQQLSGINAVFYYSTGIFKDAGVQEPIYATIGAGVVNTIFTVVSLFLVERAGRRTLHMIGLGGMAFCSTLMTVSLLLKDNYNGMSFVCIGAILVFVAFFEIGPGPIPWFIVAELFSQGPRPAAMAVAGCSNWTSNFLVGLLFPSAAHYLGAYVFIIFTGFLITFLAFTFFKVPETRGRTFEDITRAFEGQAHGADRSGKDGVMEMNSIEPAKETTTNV

SLC2A1 pseudotyped VLPs = molecular target: T5, SLC2A1 pseudotyped VLPs (UniProt P11166 1-492); test: ELISA
T5 chain: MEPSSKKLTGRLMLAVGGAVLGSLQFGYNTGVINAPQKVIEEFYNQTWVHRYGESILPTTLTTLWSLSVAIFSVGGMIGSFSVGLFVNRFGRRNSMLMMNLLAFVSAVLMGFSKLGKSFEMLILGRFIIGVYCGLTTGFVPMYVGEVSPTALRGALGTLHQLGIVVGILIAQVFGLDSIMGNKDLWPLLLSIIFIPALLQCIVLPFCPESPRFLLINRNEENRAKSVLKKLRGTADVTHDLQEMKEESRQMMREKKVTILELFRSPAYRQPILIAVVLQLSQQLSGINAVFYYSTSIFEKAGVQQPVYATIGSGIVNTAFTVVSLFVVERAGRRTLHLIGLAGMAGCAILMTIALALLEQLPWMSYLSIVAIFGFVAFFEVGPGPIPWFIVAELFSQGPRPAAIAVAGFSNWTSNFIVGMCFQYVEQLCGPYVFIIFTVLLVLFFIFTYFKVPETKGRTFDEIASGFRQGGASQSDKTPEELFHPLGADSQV

Row | Molecule | binding to SLC2A2 VLPs (SLC2A2 pseudotyped VLPs [1]) | binding result (SLC2A4 pseudotyped VLPs) | binding result (SLC2A2 pseudotyped VLPs [2]) | binding result (SLC2A3 pseudotyped VLPs) | EC50 (SLC2A1 pseudotyped VLPs)
1 | B1 | did not bind | no binding | no binding | no binding | 0.6 nM
2 | B2 | did not bind; also recorded: Some binding | no binding | no binding | no binding | 0.5 nM
